In publication PMC3405546 (Circulation Research, 2012):

Key:
[1] = target: glutathione s-transferase (GST) tagged cyclin E (human, UniProt P24864 1-410); test: cross-linking
cross-linking = target: the molecule itself; test: cross-linking

Chain of glutathione s-transferase (GST) tagged cyclin E (P24864 whole entry): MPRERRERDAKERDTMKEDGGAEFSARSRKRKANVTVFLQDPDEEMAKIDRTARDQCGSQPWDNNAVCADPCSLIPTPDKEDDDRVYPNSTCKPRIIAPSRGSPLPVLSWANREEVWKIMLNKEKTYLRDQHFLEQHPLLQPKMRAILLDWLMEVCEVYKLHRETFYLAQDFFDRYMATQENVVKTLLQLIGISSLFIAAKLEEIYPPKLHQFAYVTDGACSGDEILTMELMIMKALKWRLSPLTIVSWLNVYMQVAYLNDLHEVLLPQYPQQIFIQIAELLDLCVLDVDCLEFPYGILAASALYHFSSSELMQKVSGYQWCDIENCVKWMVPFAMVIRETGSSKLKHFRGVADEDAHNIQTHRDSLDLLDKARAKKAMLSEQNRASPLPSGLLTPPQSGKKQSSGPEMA

B1: Cx43^CTMK4D (Cx43 C-terminus, phospho-mimetic Ser>Asp), purified (domain or fragment, rat, UniProt P08050 236-382, looked up)
chain: VKDRVKGRSDPYHATTGPLDPSKDCGDPKYAYFNGCSSPTAPLDPMDPPGYKLVTGDRNNSSCRNYNKQASEQNWANYSAEQNRMGQAGSTISNSHAQPFDFPDDNQNAKKVAAGHELQPLAIVDQRPSSRASSRASSRPRPDDLEI
[1]
  stoichiometry N: 2 Cx43^CTMK4D per cyclin E
cross-linking
  stoichiometry N: 2
